Reference: the Human Domainome abundance scans (Beltran et al. 2025)
± gives the uncertainty stated by the source.

B1: Histone H1t, residues 44 to 112; numbered along this chain, P22492 (parent)
chain: VSKLITEALSVSQERVGMSLVALKKALAAAGYDVEKNNSRIKLSLKSLVNKGILVQTRGTGASGSFKLS

Variants of: B1
Assay: abundance fitness (aPCA) (normalised: wild type 0, dead -1); higher = more abundant; growth selection in yeast, the domain comes from the species named
Details: Homo sapiens

VSKLITEALSVSQERVGMSLVALKKALAAAGYDVEKRNSRIKLSLKSLVNKGILVQTRGTGASGSFKLS [N37R] and VSKLITEALSVSQERVGMSLVALKKALAAAGYDVEKLNSRIKLSLKSLVNKGILVQTRGTGASGSFKLS [N37L] are within error of each other in abundance fitness: 0.077 ± 0.18 for the first, -0.061 ± 0.11 for the second.

VSKLITEALSVSQERVGMSLVALKKALAAAGYDVEKTNSRIKLSLKSLVNKGILVQTRGTGASGSFKLS [N37T] and VSKLITEALSVSQERVGMSLVALKKALAAAGYDVEKMNSRIKLSLKSLVNKGILVQTRGTGASGSFKLS [N37M] are within error of each other in abundance fitness: -0.522 ± 0.33 for the first, -0.45 ± 0.28 for the second.

VSKLITEALSVSQERVGMSLVALKKALAAAGYDVEKWNSRIKLSLKSLVNKGILVQTRGTGASGSFKLS [N37W] and VSKLITEALSVSQERVGMSLVALKKALAAAGYDVEKSNSRIKLSLKSLVNKGILVQTRGTGASGSFKLS [N37S] are within error of each other in abundance fitness: -0.083 ± 0.38 for the first, -0.013 ± 0.28 for the second.

VSKLITEALSVSQERVGMSLVALKKALAAAGYDVEKINSRIKLSLKSLVNKGILVQTRGTGASGSFKLS [N37I] and VSKLITEALSVSQERVGMSLVALKKALAAAGYDVEKANSRIKLSLKSLVNKGILVQTRGTGASGSFKLS [N37A] are within error of each other in abundance fitness: 0.148 ± 0.16 for the first, 0.244 ± 0.36 for the second.

VSKLITEALSVSQERVGMSLVALKKALAAAGYDVEKHNSRIKLSLKSLVNKGILVQTRGTGASGSFKLS [N37H] and VSKLITEALSVSQERVGMSLVALKKALAAAGYDVEKYNSRIKLSLKSLVNKGILVQTRGTGASGSFKLS [N37Y] are within error of each other in abundance fitness: 0.093 ± 0.24 for the first, -0.289 ± 0.38 for the second.

VSKLITEALSVSQERVGMSLVALKKALAAAGYDVEKDNSRIKLSLKSLVNKGILVQTRGTGASGSFKLS [N37D] and VSKLITEALSVSQERVGMSLVALKKALAAAGYDVEKPNSRIKLSLKSLVNKGILVQTRGTGASGSFKLS [N37P] are within error of each other in abundance fitness: -0.397 ± 0.24 for the first, -0.173 ± 0.28 for the second.

VSKLITEALSVSQERVGMSLVALKKALAAAGYDVEKVNSRIKLSLKSLVNKGILVQTRGTGASGSFKLS [N37V] and VSKLITEALSVSQERVGMSLVALKKALAAAGYDVEYNNSRIKLSLKSLVNKGILVQTRGTGASGSFKLS [K36Y] are within error of each other in abundance fitness: -0.161 ± 0.17 for the first, -0.362 ± 0.092 for the second.

Going from VSKLITEALSVSQERVGMSLVALKKALAAAGYDVEVNNSRIKLSLKSLVNKGILVQTRGTGASGSFKLS [K36V] to VSKLITEALSVSQERVGMSLVALKKALAAAGYDVEPNNSRIKLSLKSLVNKGILVQTRGTGASGSFKLS [K36P], the abundance fitness falls from -0.46 ± 0.053 to -0.62 ± 0.046.

VSKLITEALSVSQERVGMSLVALKKALAAAGYDVERNNSRIKLSLKSLVNKGILVQTRGTGASGSFKLS [K36R] and VSKLITEALSVSQERVGMSLVALKKALAAAGYDVEQNNSRIKLSLKSLVNKGILVQTRGTGASGSFKLS [K36Q] are within error of each other in abundance fitness: -0.106 ± 0.033 for the first, -0.152 ± 0.044 for the second.

VSKLITEALSVSQERVGMSLVALKKALAAAGYDVETNNSRIKLSLKSLVNKGILVQTRGTGASGSFKLS [K36T] and VSKLITEALSVSQERVGMSLVALKKALAAAGYDVESNNSRIKLSLKSLVNKGILVQTRGTGASGSFKLS [K36S] are within error of each other in abundance fitness: -0.323 ± 0.048 for the first, -0.25 ± 0.038 for the second.

Going from VSKLITEALSVSQERVGMSLVALKKALAAAGYDVENNNSRIKLSLKSLVNKGILVQTRGTGASGSFKLS [K36N] to VSKLITEALSVSQERVGMSLVALKKALAAAGYDVEWNNSRIKLSLKSLVNKGILVQTRGTGASGSFKLS [K36W], the abundance fitness falls from -0.019 ± 0.11 to -0.626 ± 0.055.

VSKLITEALSVSQERVGMSLVALKKALAAAGYDVEKNNNRIKLSLKSLVNKGILVQTRGTGASGSFKLS [S39N] and VSKLITEALSVSQERVGMSLVALKKALAAAGYDVEKNNGRIKLSLKSLVNKGILVQTRGTGASGSFKLS [S39G] are within error of each other in abundance fitness: 0.075 ± 0.15 for the first, -0.087 ± 0.044 for the second.

VSKLITEALSVSQERVGMSLVALKKALAAAGYDVEKNNKRIKLSLKSLVNKGILVQTRGTGASGSFKLS [S39K] and VSKLITEALSVSQERVGMSLVALKKALAAAGYDVEKNNHRIKLSLKSLVNKGILVQTRGTGASGSFKLS [S39H] are within error of each other in abundance fitness: -0.001 ± 0.045 for the first, -0.089 ± 0.085 for the second.

Going from VSKLITEALSVSQERVGMSLVALKKALAAAGYDVEKNNRRIKLSLKSLVNKGILVQTRGTGASGSFKLS [S39R] to VSKLITEALSVSQERVGMSLVALKKALAAAGYDVEKNNWRIKLSLKSLVNKGILVQTRGTGASGSFKLS [S39W], the abundance fitness falls from -0.327 ± 0.049 to -0.472 ± 0.072.

Going from VSKLITEALSVSQERVGMSLVALKKALAAAGYDVEKNNPRIKLSLKSLVNKGILVQTRGTGASGSFKLS [S39P] to VSKLITEALSVSQERVGMSLVALKKALAAAGYDVEKNNQRIKLSLKSLVNKGILVQTRGTGASGSFKLS [S39Q], the abundance fitness rises from -0.445 ± 0.045 to 0.075 ± 0.04.

VSKLITEALSVSQERVGMSLVALKKALAAAGYDVEKNNFRIKLSLKSLVNKGILVQTRGTGASGSFKLS [S39F] and VSKLITEALSVSQERVGMSLVALKKALAAAGYDVEKNNYRIKLSLKSLVNKGILVQTRGTGASGSFKLS [S39Y] are within error of each other in abundance fitness: -0.594 ± 0.067 for the first, -0.557 ± 0.23 for the second.

Going from VSKLITEALSVSQERVGMSLVALKKALAAAGYDVEKNNCRIKLSLKSLVNKGILVQTRGTGASGSFKLS [S39C] to VSKLITEALSVSQERVGMSLVALKKALAAAGYDVEKNNERIKLSLKSLVNKGILVQTRGTGASGSFKLS [S39E], the abundance fitness rises from -0.675 ± 0.22 to 0.148 ± 0.052.

Going from VSKLITEALSVSQERVGMSLVALKKALAAAGYDVEKNNLRIKLSLKSLVNKGILVQTRGTGASGSFKLS [S39L] to VSKLITEALSVSQERVGMSLVALKKALAAAGYDVEKNNMRIKLSLKSLVNKGILVQTRGTGASGSFKLS [S39M], the abundance fitness rises from -0.317 ± 0.028 to -0.228 ± 0.045.

Going from VSKLITEALSVSQERVGMSLVALKKALAAAGYDVEKNNVRIKLSLKSLVNKGILVQTRGTGASGSFKLS [S39V] to VSKLITEALSVSQERVGMSLVALKKALAAAGYDVEKNNDRIKLSLKSLVNKGILVQTRGTGASGSFKLS [S39D], the abundance fitness rises from -0.539 ± 0.059 to -0.013 ± 0.11.

VSKLITEALSVSQERVGMSLVALKKALAAAGYDVEKNNARIKLSLKSLVNKGILVQTRGTGASGSFKLS [S39A] showed an abundance fitness of -0.005 ± 0.04.
